This passage reports Kd results from the Immune Epitope Database (IEDB).

For orientation: Kd means the free concentration of one partner at which half of the binding sites on the other are occupied at equilibrium, for simple one-to-one binding.

Among the targets are HLA-A*03:01; HLA-A*11:01; HLA-A*31:01; HLA-A*33:01; HLA-A*68:01.
What all share (assay): IEDB peptide-MHC binding, purified MHC/competitive/radioactivity; filed as Kd, often an IC50 or EC50 that approximates it; ≥ and ≤ were set here for values at or beyond the usual limits of such assays
[1] abbreviates: source organism: Dengue virus 4 Philippines/H241/1956.
Setting [2] is: source organism: Dengue virus 1 Brazil/97-11/1997.
The mark [3] stands for this setting: source organism: Mammarenavirus juninense.
[4] abbreviates: source organism: Vaccinia virus WR.
Setting [5] is: source organism: Mammarenavirus whitewaterense.
[6] abbreviates: source organism: Dengue virus 2 Jamaica/1409/1983.
Where [7] appears, read: source organism: SARS coronavirus Tor2.
[8] abbreviates: source organism: Mammarenavirus brazilense.

As for GISLGLILLK, the dissociation constant Kd came to 16.5 nM with HLA-A*03:01 (setting [1]) and 79.1 nM in the assay with HLA-A*11:01 (setting [1]).

For ALFEPEREK, in the assay with HLA-A*03:01 (setting [2]), the Kd was found to be 58.7 nM.

In the case of KCFGNTAVAK, the equilibrium dissociation constant (Kd) with HLA-A*31:01 (setting [3]) is 181 nM; in the assay with HLA-A*03:01 (setting [3]), 579 nM; with HLA-A*33:01 (setting [3]), 1470 nM; with HLA-A*68:01 (setting [3]), 18800 nM; with HLA-A*11:01 (setting [3]), 6460 nM.

For the sequence EVHWNYKER, in the assay with HLA-A*68:01 (setting [1]), the Kd is 15.2 nM.

For the sequence VLPHLCLDY, the equilibrium dissociation constant (Kd) with HLA-A*31:01 (setting [4]) was 7820 nM; with HLA-A*03:01 (setting [4]), 102 nM; with HLA-A*33:01 (setting [4]) it was 1990 nM; with HLA-A*68:01 (setting [4]), 15000 nM; with HLA-A*11:01 (setting [4]), 421 nM.

As for EMYPRHRYSK, the equilibrium dissociation constant (Kd) was 1150 nM with HLA-A*31:01 (setting [4]); 126 nM with HLA-A*03:01 (setting [4]); 326 nM with HLA-A*33:01 (setting [4]); 27.8 nM in the assay with HLA-A*68:01 (setting [4]); 1110 nM in the assay with HLA-A*11:01 (setting [4]).

Take TAIAKCNLDH: the dissociation constant Kd with HLA-A*31:01 (setting [5]) is 929 nM; with HLA-A*03:01 (setting [5]), no less than 70000 nM; in the assay with HLA-A*33:01 (setting [5]), no less than 34200 nM; in the assay with HLA-A*68:01 (setting [5]) it was 7070 nM; with HLA-A*11:01 (setting [5]), no less than 69700 nM.

Take FVDINRNNK: the equilibrium dissociation constant (Kd) was 2300 nM in the assay with HLA-A*31:01 (setting [4]); 281 nM with HLA-A*03:01 (setting [4]); no less than 46800 nM with HLA-A*33:01 (setting [4]); 25.1 nM in the assay with HLA-A*68:01 (setting [4]); 50.8 nM with HLA-A*11:01 (setting [4]).

For EYRLRGEAR, the Kd with HLA-A*33:01 (setting [6]) is 44.2 nM.

For TISSESLVY, the Kd turned out to be 10200 nM in the assay with HLA-A*31:01 (setting [4]); 21 nM with HLA-A*03:01 (setting [4]); 5450 nM with HLA-A*33:01 (setting [4]); 619 nM with HLA-A*68:01 (setting [4]); 10.7 nM with HLA-A*11:01 (setting [4]).

Take NAPIKEFKAK: the dissociation constant Kd was 8830 nM in the assay with HLA-A*31:01 (setting [4]); 15600 nM with HLA-A*03:01 (setting [4]); 3310 nM with HLA-A*33:01 (setting [4]); 187 nM in the assay with HLA-A*68:01 (setting [4]); no less than 27700 nM with HLA-A*11:01 (setting [4]).

Turning to NVKKKNEGK, the Kd with HLA-A*31:01 (setting [4]) was no less than 20400 nM; with HLA-A*03:01 (setting [4]), 6520 nM; with HLA-A*33:01 (setting [4]), 17600 nM; with HLA-A*68:01 (setting [4]), 142 nM; in the assay with HLA-A*11:01 (setting [4]), no less than 29700 nM.

For LTNKHCLNNY, the dissociation constant (Kd) is 4420 nM with HLA-A*31:01 (setting [4]); 1380 nM with HLA-A*03:01 (setting [4]); no less than 66000 nM with HLA-A*33:01 (setting [4]); no less than 21200 nM in the assay with HLA-A*68:01 (setting [4]); 2070 nM with HLA-A*11:01 (setting [4]).

Consider ISFKSINKVY, for which the Kd is 9890 nM with HLA-A*31:01 (setting [4]); 2530 nM in the assay with HLA-A*03:01 (setting [4]); no less than 63300 nM in the assay with HLA-A*33:01 (setting [4]); 6590 nM in the assay with HLA-A*68:01 (setting [4]); 12200 nM with HLA-A*11:01 (setting [4]).

Take VTFKTAHAK: the values for the Kd in the assay with HLA-A*03:01 (setting [2]), with HLA-A*68:01 (setting [2]) and with HLA-A*11:01 (setting [2]) were 4.15 nM, 43.9 nM and 89.7 nM, respectively.

As for ITFLRPVLK, the Kd was determined as 7.61 nM in the assay with HLA-A*31:01 (setting [4]); 4.53 nM in the assay with HLA-A*03:01 (setting [4]); 84.5 nM with HLA-A*33:01 (setting [4]); 1.14 nM with HLA-A*68:01 (setting [4]); 6.45 nM with HLA-A*11:01 (setting [4]).

KAERVIDPR: the equilibrium dissociation constant (Kd) in the assay with HLA-A*31:01 (setting [6]) worked out at 56.6 nM.

Regarding SINSEYIESK, the dissociation constant Kd was no less than 70000 nM in the assay with HLA-A*31:01 (setting [4]); 7720 nM with HLA-A*03:01 (setting [4]); no less than 70000 nM with HLA-A*33:01 (setting [4]); 2580 nM in the assay with HLA-A*68:01 (setting [4]); 55.4 nM with HLA-A*11:01 (setting [4]).

Take RFWELVDKER: in the assay with HLA-A*31:01 (setting [1]), the dissociation constant (Kd) was determined as 5.19 nM.

Regarding NTMCTEETKR, the equilibrium dissociation constant (Kd) with HLA-A*31:01 (setting [4]) is 13300 nM; with HLA-A*03:01 (setting [4]) it was no less than 32200 nM; with HLA-A*33:01 (setting [4]) it was 4210 nM; in the assay with HLA-A*68:01 (setting [4]), 17.8 nM; with HLA-A*11:01 (setting [4]) it was 6410 nM.

Take NIILSKIPY: the equilibrium dissociation constant (Kd) was 14400 nM with HLA-A*31:01 (setting [4]); 1180 nM with HLA-A*03:01 (setting [4]); 9760 nM with HLA-A*33:01 (setting [4]); 778 nM in the assay with HLA-A*68:01 (setting [4]); 552 nM with HLA-A*11:01 (setting [4]).

With QISRVNDLNR, the Kd was 122 nM in the assay with HLA-A*31:01 (setting [4]); 1940 nM with HLA-A*03:01 (setting [4]); 913 nM with HLA-A*33:01 (setting [4]); 88 nM with HLA-A*68:01 (setting [4]); 335 nM with HLA-A*11:01 (setting [4]).

As to TFIDVHIPK, the Kd in the assay with HLA-A*31:01 (setting [4]) amounted to 2.36 nM; with HLA-A*03:01 (setting [4]), 187 nM; with HLA-A*33:01 (setting [4]), 1.05 nM; in the assay with HLA-A*68:01 (setting [4]), 11.4 nM; in the assay with HLA-A*11:01 (setting [4]), 0.921 nM.

Consider MSHVKSVTK, for which the dissociation constant Kd was 20.1 nM with HLA-A*31:01 (setting [4]); 18.6 nM in the assay with HLA-A*03:01 (setting [4]); 1930 nM in the assay with HLA-A*33:01 (setting [4]); 9 nM in the assay with HLA-A*68:01 (setting [4]); 8.05 nM in the assay with HLA-A*11:01 (setting [4]).

For VQTKPGLFK, the Kd was found to be 144 nM with HLA-A*03:01 (setting [6]) and 102 nM in the assay with HLA-A*11:01 (setting [6]).

For ALILAYSNK, the equilibrium dissociation constant (Kd) was 3800 nM with HLA-A*31:01 (setting [7]); 48.6 nM in the assay with HLA-A*03:01 (setting [7]); no less than 43300 nM in the assay with HLA-A*33:01 (setting [7]); 4520 nM with HLA-A*68:01 (setting [7]); 19.6 nM with HLA-A*11:01 (setting [7]).

With YQNKVVKVQR, in the assay with HLA-A*33:01 (source organism: Dengue virus 3 Martinique/1243/1999), the Kd is 701 nM.

As for KCFGNTALAK, the Kd with HLA-A*31:01 (setting [8]) was 972 nM; with HLA-A*03:01 (setting [8]), 830 nM; with HLA-A*33:01 (setting [8]), no less than 70000 nM; with HLA-A*68:01 (setting [8]), no less than 22500 nM; with HLA-A*11:01 (setting [8]), 8480 nM.
